{"source": "paper PMC5428028", "about": "“Role for the ATPase inhibitory factor 1 in the environmental carcinogen-induced Warburg phenotype” (Scientific Reports, 2017)", "target": "the molecule itself", "experiment": "western blot (band of dimer size after electrophoresis); mitochondrial fractions of F258 cells exposed to B[a]P (50 nM or 1 µM, 48 h), lysed in RIPA buffer; 24 kDa band beside the 12 kDa monomer; gel conditions not shown"}
{"protein": "ATPase inhibitory factor 1 (IF1) (natural protein, rat (endogenous in F258), UniProt Q03344 26-107, looked up, monomeric form printed as 12 kDa, dimer band as 24 kDa; Detected with a polyclonal rabbit anti-ATPIF1 antibody, used only as a tool; The western blot methods are in the Supplementary Information; also called ATPIF1; source: endogenous, mitochondrial fraction of F258 rat liver epithelial cells, lysed in RIPA buffer) GSDSSESMDSGAGSIREAGGAFGKREKAEEDRYFREKTREQLAALKKHHEDEIDHHSKEIERLQKQIERHKKKIKYLKNSEH", "values": [{"measurement": "stoichiometry N", "result": 2}]}
